In patent publication US20050100554A1 (published 2005):

B7: Human papillomavirus 11 E2 (other)
chain: MEAIAKRLDACQDQLLELYEENSIDIHKHIMHWKCIRLESVLLHKAKQMGLSHIGLQVVPPLTVSETKGHNAIEMQMHLESLAKTQYGVEPWTLQDTSYEMWLTPPKRCFKKQGNTVEVKFDGCEDNVMEYVVWTHIYLQDNDSWVKVTSSVDAKGIYYTCGQFKTYYVNFNKEAQKYGSTNHWEVCYGSTVICSPASVSSTVREVSIAEPTTYTPAQTTAPTVSACTTEDGVSAPPRKRARGPSTNNTLCVANIRSVDSTINNIVTDNYNKHQRRNNCHSAATPIVQLQGDSNCLKCFRYRLNDKYKHLFELASSTWHWASPEAPHKNAIVTLTYSSEEQRQQFLNSVKIPPTIRHKVGFMSLHLL
notes: also called HPV 11 E2; cbe_250781

How the values were obtained:
[1] = target: T1, Human Papillomavirus 1a L1 (Human Papillomavirus 1a, UniProt P03099 1-508); assay: Y2H; INT ID 438
T1 construct: also called HPV 1a L1; cbe_252016
T1 sequence: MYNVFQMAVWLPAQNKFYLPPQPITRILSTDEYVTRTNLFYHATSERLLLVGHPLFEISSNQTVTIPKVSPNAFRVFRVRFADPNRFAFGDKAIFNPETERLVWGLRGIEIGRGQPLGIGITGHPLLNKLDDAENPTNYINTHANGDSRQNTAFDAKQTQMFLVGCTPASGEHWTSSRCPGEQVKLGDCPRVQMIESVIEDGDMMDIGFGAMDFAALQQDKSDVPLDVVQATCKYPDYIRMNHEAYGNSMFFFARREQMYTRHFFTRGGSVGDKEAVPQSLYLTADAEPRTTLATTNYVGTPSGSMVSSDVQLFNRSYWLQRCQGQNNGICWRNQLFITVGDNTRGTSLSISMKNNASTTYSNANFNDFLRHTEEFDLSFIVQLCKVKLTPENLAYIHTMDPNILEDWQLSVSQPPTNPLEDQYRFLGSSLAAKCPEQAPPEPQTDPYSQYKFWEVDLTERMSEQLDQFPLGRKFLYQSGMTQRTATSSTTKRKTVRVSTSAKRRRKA

RPS26 = target: T2, RPS26 (human, UniProt P62854 2-115); assay: Y2H; INT ID 99
T2 construct: also called cbe_4270015

PTPN2 = target: T3, PTPN2 (human, UniProt P17706 1-415); assay: Y2H; INT ID 160
T3 construct: also called cbe_2576474
T3 sequence (looked up): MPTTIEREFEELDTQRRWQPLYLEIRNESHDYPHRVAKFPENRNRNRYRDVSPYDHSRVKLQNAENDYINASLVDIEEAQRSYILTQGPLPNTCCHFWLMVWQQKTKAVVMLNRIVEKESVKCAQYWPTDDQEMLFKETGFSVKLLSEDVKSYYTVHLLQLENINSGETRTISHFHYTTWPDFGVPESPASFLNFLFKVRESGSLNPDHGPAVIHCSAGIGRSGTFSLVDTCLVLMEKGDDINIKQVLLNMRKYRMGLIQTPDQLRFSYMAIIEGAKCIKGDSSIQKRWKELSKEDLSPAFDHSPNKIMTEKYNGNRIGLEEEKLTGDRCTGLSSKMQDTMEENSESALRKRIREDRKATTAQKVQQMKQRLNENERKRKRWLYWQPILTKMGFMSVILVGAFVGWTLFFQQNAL

STX4A = target: T4, STX4A (human, UniProt Q12846 1-297); assay: Y2H (told in text)
T4 construct: also called syntaxin 4; cbe_4270186
T4 sequence: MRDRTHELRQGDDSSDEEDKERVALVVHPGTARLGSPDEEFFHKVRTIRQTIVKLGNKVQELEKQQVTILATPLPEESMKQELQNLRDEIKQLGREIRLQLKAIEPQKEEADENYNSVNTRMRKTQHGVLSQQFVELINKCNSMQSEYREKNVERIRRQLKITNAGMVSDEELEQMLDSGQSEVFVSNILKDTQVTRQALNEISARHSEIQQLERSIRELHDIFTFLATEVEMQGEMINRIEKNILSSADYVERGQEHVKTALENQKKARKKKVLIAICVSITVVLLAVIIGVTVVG

PSMC1 = target: T5, PSMC1 (human, UniProt P62191 2-440); assay: Y2H (told in text)
T5 construct: also called proteosome 26S subunit; proteosome subunit PMSC1
T5 sequence (P62191 2-440 limits assumed): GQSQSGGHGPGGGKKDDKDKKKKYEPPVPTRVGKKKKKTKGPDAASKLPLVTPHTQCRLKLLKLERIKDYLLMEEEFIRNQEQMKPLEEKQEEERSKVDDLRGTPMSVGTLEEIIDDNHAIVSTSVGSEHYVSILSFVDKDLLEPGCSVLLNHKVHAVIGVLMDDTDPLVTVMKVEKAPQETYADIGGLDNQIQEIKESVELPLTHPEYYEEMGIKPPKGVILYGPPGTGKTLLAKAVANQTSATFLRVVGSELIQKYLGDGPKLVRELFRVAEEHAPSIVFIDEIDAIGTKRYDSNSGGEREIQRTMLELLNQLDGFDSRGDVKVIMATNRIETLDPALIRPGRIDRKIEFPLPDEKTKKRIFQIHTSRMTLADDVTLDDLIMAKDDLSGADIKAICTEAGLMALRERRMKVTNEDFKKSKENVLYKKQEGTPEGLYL

[2] = target: T6, steroid receptor RNA activator 1 (human, UniProt Q9HD15 1-224); assay: Y2H; INT ID 7
T6 construct: also called SRA1; cbe_4344185
T6 sequence: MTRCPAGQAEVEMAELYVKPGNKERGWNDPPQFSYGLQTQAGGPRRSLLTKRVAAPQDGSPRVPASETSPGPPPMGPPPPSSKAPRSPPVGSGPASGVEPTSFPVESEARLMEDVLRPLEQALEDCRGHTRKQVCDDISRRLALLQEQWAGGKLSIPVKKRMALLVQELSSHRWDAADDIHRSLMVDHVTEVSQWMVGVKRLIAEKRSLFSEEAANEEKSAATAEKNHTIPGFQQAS

SCO1 = target: T7, SCO1 (human, UniProt O75880 68-301); assay: Y2H; INT ID 6
T7 construct: also called cbe_1699351
T7 sequence: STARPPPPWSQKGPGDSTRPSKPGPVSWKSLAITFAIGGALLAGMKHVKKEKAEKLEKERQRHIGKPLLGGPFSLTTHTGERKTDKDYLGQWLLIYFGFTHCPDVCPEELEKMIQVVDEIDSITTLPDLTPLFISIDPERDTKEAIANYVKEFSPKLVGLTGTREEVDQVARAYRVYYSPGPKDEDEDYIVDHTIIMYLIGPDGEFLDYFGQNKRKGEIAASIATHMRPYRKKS

MT2A = target: T8, MT2A (human, UniProt P02795 1-61); assay: Y2H; INT ID 5
T8 construct: also called cbe_862174
T8 sequence (P02795 whole entry): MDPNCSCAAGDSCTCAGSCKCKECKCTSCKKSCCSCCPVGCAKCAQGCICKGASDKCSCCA

[3] = target: T1, Human Papillomavirus 1a L1; assay: Y2H; INT ID 440
[4] = target: T1, Human Papillomavirus 1a L1; assay: Y2H; INT ID 439
[5] = target: B7; assay: Y2H; INT ID 14
KRT8 = target: T9, KRT8 (human, UniProt P05787 1-483); assay: Y2H; INT ID 16
T9 construct: also called cbe_4269571
T9 sequence: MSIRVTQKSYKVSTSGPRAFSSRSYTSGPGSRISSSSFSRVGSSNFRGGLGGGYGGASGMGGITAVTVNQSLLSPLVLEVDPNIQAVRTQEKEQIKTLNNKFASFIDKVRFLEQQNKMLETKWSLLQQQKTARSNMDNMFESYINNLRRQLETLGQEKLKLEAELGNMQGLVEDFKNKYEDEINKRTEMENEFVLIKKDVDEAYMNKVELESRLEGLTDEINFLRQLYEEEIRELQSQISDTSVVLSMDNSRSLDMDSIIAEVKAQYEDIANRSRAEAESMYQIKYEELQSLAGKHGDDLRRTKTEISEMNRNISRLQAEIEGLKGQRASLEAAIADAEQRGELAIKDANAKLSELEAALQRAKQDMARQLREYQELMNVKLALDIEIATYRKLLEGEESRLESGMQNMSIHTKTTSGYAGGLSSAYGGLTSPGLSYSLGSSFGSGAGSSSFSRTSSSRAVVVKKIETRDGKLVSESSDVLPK

B1: isovaleryl Coenzyme A dehydrogenase (enzyme)
chain: HSLLPVDDAINGLSEEQRQLRQTMAKFLQEHLAPKAQEIDRSNEFKNLREFWKQLGNLGVLGITAPVQYGGSGLGYLEHVLVMEEISRASGAVGLSYGAHSNLCINQLVRNGNEAQKEKYLPKLISGEYIGALAMSEPNAGSDVVSMKLKAEKKGNHYILNGNKFWITNGPDADVLIVYAKTDLAAVPASRGITAFIVEKGMPGFSTSKKLDKLGMRGSNTCELIFEDCKIPAANILGHENKGVYVLMSGLDLERLVLAGGPLGLMQAVLDHTIPYLHVREAFGQKIGHFQLMQGKMADMYTRLMACRQYVYNVAKACDEGHCTAKDCAGVILYSAECATQVALDGIQCFGGNGYINDFPMGRFLRDAKLYEIGAGTSEVRRLVIGRAFNADFH
notes: also called IVD; cbe_3800240
- binding result [1]: binds

B2: Human papillomavirus 16 E6 (other)
chain: MHQKRTAMFQDPQERPRKLPQLCTELQTTIHDIILECVYCKQQLLRREVYDFAFRDLCIVYRDGNPYAVCDKCLKFYSKISEYRHYCYSLYGTTLEQQYNKPLCDLLIRCINCQKPLCPEEKQRHLDKKQRFHNIRGRWTGRCMSCCRSSRTRRETQL
notes: also called HPV 16 E6; HPV16 E6
- binding result (RPS26): binds
- binding result (PTPN2): binds
- binding result (STX4A): binds
- binding result (PSMC1): binds

B3: Human papillomavirus 11 E4 (other)
chain: MVVPIIGKYVMAAQLYVLLHLYLALYEKYPLLNLLHTPPHRPPPLQCPPAPRKTACRRRLGSEHVDRPLTTPCVWPTSDPWTVQSTTSSLTITTSTKEGTTVTVQLRL
notes: also called HPV 11 E4; cbe_250777
- binding result [2]: binds
- binding result (SCO1): binds
- binding result (MT2A): binds

B4: SCGB1A1 (other)
chain: EICPSFQRVIETLLMDTPSSYEAAMELFSPDQDMREAGAQLKKLVDTLPQKPRESIIKLMEKIAQSSLCN
notes: also called cbe_4296923
- binding result [3]: binds

B5: NR1H2 (receptor)
chain: MSSPTTSSLDTPLPGNGPPQPGAPSSSPTVKEEGPEPWPGGPDPDVPGTDEASSACSTDWVIPDPEEEPERKRKKGPAPKMLGHELCRVCGDKASGFHYNVLSCEGCKGFFRRSVVRGGARRYACRGGGTCQMDAFMRRKCQQCRLRKCKEAGMREQCVLSEEQIRKKKIRKQQQESQSQSQSPVGPQGSSSSASGPGASPGGSEAGSQGSGEGEGVQLTAAQELMIQQLVAAQLQCNKRSFSDQPKVTPWPLGADPQSRDARQQRFAHFTELAIISVQEIVDFAKQVPGFLQLGREDQIALLKASTIEIMLLETARRYNHETECITFLKDFTYSKDDFHRAGLQVEFINPIFEFSRAMRRLGLDDAEYALLIAINIFSADRPNVQEPGRVEALQQPYVEALLSYTRIKRPQDQLRFPRMLMKLVSLRTLSSVHSEQVFALRLQDKKLPPLLSEIWDVHE
notes: also called cbe_4268726
- binding result [4]: binds

B6: hypothetical gene supported by AL449243 (other)
chain: MASGAARWLVLAPVRSGALRSGPSLRKDGDVSAAWSGSGRSLVPSGSVIVTRSGAILPKPVKMSFGLLRVFSIVIPFLYVGTLISKNFAALLEEHDIFVPEDDDDDD
notes: also called Hs.306083; LOC91689
- binding result [5]: binds

Binder: B7
- binding result (KRT8): binds
